Data on 3 molecules can be found in US20160024208A1 (Regeneron, published 2016).

Assay [1] has as its target T1, N-Term Biotin Nav1.7 (3-1) peptide, mouse (mouse, not fully specified; N-terminal biotin attached via a G4S linker).
T1 construct: Synthetic peptide; also called Mouse Nav1.7 3-1 N-term biotin
T1 peptide: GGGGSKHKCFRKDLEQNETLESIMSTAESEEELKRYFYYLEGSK
Briefly: SPR, captured antibody, peptide analyte. How it is done: (§1) The binding affinities of anti-Naᵥ 1.7 antibodies to Naᵥ 1.7 loop peptides were determined by Biacore. For monovalent kinetic experiments, antibodies were captured through the Fc region via a goat anti-Fc-coupled biosensor surface, and the peptides (as analyte) were injected over this captured antibody surface. For bivalent (avidity-driven) kinetic experiments, biotinylated peptides corresponding to the Naᵥ 1.7 3-1, 3-3, or paddle loop sequences were captured on a NeutrAvidin sensor surface, and anti-Naᵥ 1.7 antibodies (as analyte) were injected over this surface. Following the capture step, each analyte was individually injected at several concentrations over its respective capture surface, and changes in bound surface units (RU) were monitored. The dissociation rate is independent of the concentration of analyte used in the experiment, and the dissociation rate constant (kd) was determined from the change in antibody-bound analyte RU over time. The Biacore kinetic data were obtained using a double referencing procedure. The double referencing was conducted by first subtracting any interaction of the analyte over the reference surface (i.e., the anti-Fc coupled surface alone or the NeutrAvidin surface alone), thereby correcting for nonspecific binding to capture surface and for refractive index changes. Control buffer injections (no analyte) over the antibody- or peptide-captured surfaces were also performed to allow subtraction of RU signal changes resulting from the natural dissociation of captured binding partner from the sensor surface. The kinetic parameters were obtained by globally fitting the data for all concentrations tested for a given peptide or antibody to a 1:1 binding model using Biacore T100 Evaluation Software version 2.0.2. The KD was calculated as the dissociation rate constant divided by the association rate constant (KD=kd/kₐ). The dissociative half-life (t_{1/2}) was calculated from the dissociation rate constant (t_{1/2}=In2/kd).

The target in assay [2] is T2, Native Nav1.7 (3-1) peptide, human (human).
T2 construct: Synthetic peptide (Celtek), unbiotinylated; also called Human Nav1.7 3-1 native; Nav1.7 3-1 native peptide
T2 peptide: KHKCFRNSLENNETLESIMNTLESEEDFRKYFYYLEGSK
The assay can be described thus: SPR, captured antibody, peptide analyte. How it is done:
as §1

In assay [3] the target is T3, Native Nav1.7 (3-1) peptide, rat (rat).
T3 construct: Synthetic peptide; also called Rat Nav1.7 3-1 native
T3 peptide: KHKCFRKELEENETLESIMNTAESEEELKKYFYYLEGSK
The assay can be described thus: SPR, captured antibody, peptide analyte. How it is done: as §1

Assay [4] addresses T4, N-Term Biotin Nav1.7 (3-1) peptide, mulatta (mulatta (monkey), not fully specified; N-terminal biotin attached via a G4S linker).
T4 construct: Synthetic peptide; also called Mulatta Nav1.7 3-1 N-term biotin; monkey
T4 peptide: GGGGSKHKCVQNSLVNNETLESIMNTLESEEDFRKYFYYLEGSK
The assay can be described thus: SPR, captured antibody, peptide analyte. How it is done:
as §1
For orientation: Surface plasmon resonance follows binding to a sensor surface in real time, without labels.

Assay [5] deals with T5, full-length human Nav1.7 fused at its N-terminus to GFP, expressed in HEK293 cells (human, UniProt Q15858 1-1988).
T5 construct: Voltage-gated sodium channel alpha subunit; In the Western blot it stood as denatured cell lysate; also called hNav 1.7-GFP-HEK293; Nav 1.7-GFP-HEK293; not shown: green fluorescent protein (GFP) at the N-terminus
Briefly: flow cytometry; % stained hNav1.7-GFP-HEK293 minus parental HEK293. How it is done:
The binding of anti-Naᵥ 1.7 human antibodies to full-length Naᵥ 1.7 expressed in HEK293 cells was determined by flow cytometry (FACS). HEK293 cells were stably-transfected with full-length human Nav1.7 fused at its N-terminus to the green fluorescent protein (GFP) to generate cell line hNaᵥ 1.7-GFP-HEK293. Antibody binding to the transfected cells overexpressing Naᵥ 1.7 was compared to binding to the parental HEK293 cell line. To perform the binding experiments, adherent cells were collected using 1 mM EDTA in PBS, washed and re-suspended in cold PBS containing 5% FBS. For each binding experiment, the anti-Naᵥ 1.7 antibody (at concentrations ranging from 1 nM to 13 nM), was added to 250,000 cells in 500 μL of PBS with 5% FBS. After incubation for 20 minutes on ice, the secondary antibody, recognizing either human-Fc and conjugated to cyanine 5 (Cy5) or recognizing mouse-Fc and conjugated to allophyocyanin (APC), was then added to the cell mixture at a final secondary antibody concentration of 1.7 nM. After incubating for 20 minutes on ice, the cells were resuspended in PBS+5% FBS and then sorted and analyzed on a flow cytometer to determine relative binding by the candidate antibodies. For FACS analysis, gating was applied to examine only healthy live cells in the antibody binding experiments, and percentage stained was recorded. Staining of secondary antibodies alone to Naᵥ 1.7-GFP-HEK293 cells gave low background signals (1-2%). Specific binding was measured as the percent binding to Naᵥ 1.7-GFP-HEK293 cells minus percent binding to parental HEK293 cells.
On the technique in general: A flow cytometer gives signals particle by particle.

In assay [6] the target is T1, N-Term Biotin Nav1.7 (3-1) peptide, …. The assay can be described thus: ELISA on coated peptide, antibody 1 ug/ml, OD450 grade. On the procedure: (§2) Anti-Naᵥ 1.7 antibodies were tested for their ability to bind to the Naᵥ 1.7 peptides. The various peptides were coated overnight onto 96-well Nunc Immunosorp plates at a concentration of 4 μg/mL in PBS, followed by blocking for 1 hour in a suitable blocking agent. For biotinylated peptides, avidin was first coated on Nunc Immunosorp plates at 2 μg/mL in PBS overnight, followed by blocking as described, and the plate was then coated with biotinylated peptides at a concentration of 0.4 μg/mL and incubated for 1 hour at room temperature. Purified anti-Naᵥ 1.7 antibodies were diluted to a final concentration of 0.1 μg/mL and 1.0 μg/mL and added to the wells of the coated microtiter plates followed by incubation for 1 hour at room temperature. Bound antibodies were detected with horseradish peroxidase (HRP) conjugated anti-mouse or anti-human IgG (Jackson Immuno Research Lab, West Grove, Pa.) depending on the antibody species and developed by colorimetric response using tetramethylbenzidine (TMB) substrate (BD Biosciences). Absorbance was read at OD₄₅₀ on a plate reader for 0.1 second.
(§3) Values in Table 11 represent absolute binding ranges (at OD450) to plate-coated peptides for antibodies added at 1 μg/ml as follows: OD450<0.2: −; 0.2<OD450<1: +; 1<OD450<2: ++; 2<OD450<4: +++; NT: Not Tested.

Assay [7] has as its target T3, Native Nav1.7 (3-1) peptide, rat. The assay is described as above. How it is done:
as §2, §3

The target of assay [8] is T4, N-Term Biotin Nav1.7 (3-1) peptide, …. Described as above. On the procedure:
as §2, §3

The target of assay [9] is T6, N-Term Biotin-Nav1.7 (3-1) peptide, human (human, not fully specified; N-terminal biotin attached via a G4S linker).
T6 construct: ELISA peptide
T6 peptide: T4 peptide with V10F, Q11R, V15E
The assay is described as above. On the procedure:
as §2, §3

Assay [10] concerns the target T7, C-term Biotin Nav1.7 (3-1) peptide, human (human, not fully specified; C-terminal biotin attached via a G4S linker).
T7 construct: Synthetic peptide; also called Human Nav1.7 3-1 C-term biotin
T7 peptide: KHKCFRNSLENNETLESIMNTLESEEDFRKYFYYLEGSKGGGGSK
Briefly: SPR, captured biotin-peptide, antibody analyte. On the procedure: as §1

Assay [11] addresses T5, full-length human Nav1.7 fused at its …. Briefly: cell-based or functional assay.

Substitutions are numbered along the chain they refer to.

B1: H1H1008B (antibody, V domains shown)
VH: EVQLVQSGPGLVKSSETLSLKCTVSGGSISSSGYYWGWIRQPPGKGLEWIGSIHRSGSTFYNPSLKSRVTISVDTSKSQFSLRLTSVTAADTSVYFCGRHGRDYYYGMDVWGQGTTVTVSS
VL: DIQMTQSPSSVSASVGDRVTITCRSSQDINNWLVWYQQKPGKAPKVLIYGASRLQSGVPSRFSGSGSGTDFTLTISSLQPEDFATYYCQQANSFPLTFGGGTKLEIKR
notes: Fully human antibody; also called H4H1008B
For orientation: Kd means the free concentration of one partner at which half of the binding sites on the other are occupied at equilibrium, for simple one-to-one binding. Low values mean tighter binding, high ones weaker binding. For B1, the Kd came to 14.8 nM in assay [1]; 4.31 nM in assay [2]; 4.67 nM in assay [3]; 1.11 nM in [4]; 0.123 nM in assay [10]. Also, the t1/2 in assay [1] stood at 1.3 min; in assay [2], 4 min; in assay [3], 3.1 min; in assay [4], 17.5 min; in [10], 84.2 min. Also, the “% Binding Nav1.7” value in assay [5] amounted to 12.5%. The OD450 in assay [6], in [7], in assay [8] and in [9] was 2 to 4 od in each case. In addition, the “Current blocking (Average % inhibition), IonWorks Quattro, 223 nM antibody” value (from here on “Current blocking (Average % inhibition)”) in assay [11] came to 38%.

B2: H1H1019B (antibody, V domains shown)
VH: B1 VH with Q6E, S14P, S30R, R55H, F60Y, S93A, F96Y
VL: B1 VL with D1A, M4L, V11L, S25A, V46L, G50A, R53S, L104V, E105D
B2: the Kd in assay [1] stood at 351 nM; in assay [2], 113 nM; in assay [3], 101 nM; in assay [4] it was 12.6 nM; in assay [10], 0.231 nM. Moreover, the t1/2 in [1] is 0.083 min; in [2], 0.44 min; in assay [3], 0.11 min; in assay [4], 2.8 min; in assay [10], 29.8 min. Moreover, the “% Binding Nav1.7” value in assay [5] turned out to be 28.1%. Moreover, the OD450 in assay [6], in assay [7], in [8] and in assay [9] was 2 to 4 od each time. Further, the “Current blocking (Average % inhibition)” value in assay [11] came out at 24%.

B3: H4H367B (antibody, V domains shown)
VH: QVQLVQSGGGVVQPGRSLRLSCAASGFSFSSFGMHWVRQAPGKGLEWVAVISYGGINKHYSDSVKGRFTISRDDSKNTLYLQMNSLRAEDTAVYYCAKREGYRYAYDYWGQGTLVTVSS
VL: DIQMTQSPSSLSASVGDRVTITCRASQGISNYLAWFQQKPGKAPKSLIYGASSLQSGVPSKFSGSGSGTDFTLTISSLQPEDFATYYCQQYNSYPLTFGGGTKVEIKR
With B3, the Kd in assay [1] was 107 nM; in [2] it was 4.67 nM; in assay [3], 88 nM; in assay [4], 0.63 nM; in assay [10], 0.341 nM. Moreover, the t1/2 is 0.59 min in assay [1]; 10.5 min in assay [2]; 0.42 min in [3]; 23.7 min in [4]; 94 min in [10]. Further, in [5], the “% Binding Nav1.7” value worked out at 15.8%. The OD450 in assay [6], in assay [7], in [8] and in assay [9] was 2 to 4 od each time. Also, the “Current blocking (Average % inhibition)” value in [11] is -35%.
